To fix the notation:
B3: Rad51 (natural protein, S. pombe, UniProt P36601 1-365, looked up)
chain: MADTEVEMQVSAADTNNNENGQAQSNYEYDVNVQDEEDEAAAGPMPLQMLEGNGITASDIKKIHEAGYYTVESIAYTPKRQLLLIKGISEAKADKLLGEASKLVPMGFTTATEYHIRRSELITITTGSKQLDTLLQGGVETGSITELFGEFRTGKSQICHTLAVTCQLPIDMGGGEGKCLYIDTEGTFRPVRLLAVADRYGLNGEEVLDNVAYARAYNADHQLELLQQAANMMSESRFSLLVVDSCTALYRTDFSGRGELSARQMHLARFMRTLQRLADEFGIAVVITNQVVAQVDGISFNPDPKKPIGGNILAHSSTTRLSLRKGRGEQRICKIYDSPCLPESEAIFAINSDGVGDPKEIIAPV
notes: Rad51 recombinase, S. pombe; also called S. pombe Rad51; Rad51-ssDNA filament

For data set [1], the target named is T1, Swi5-Sfr1 (S5S1) wild type (Schizosaccharomyces pombe, UniProt Q9UUB7;Q9USV1 1-85;1-299).
T1 sequence 1: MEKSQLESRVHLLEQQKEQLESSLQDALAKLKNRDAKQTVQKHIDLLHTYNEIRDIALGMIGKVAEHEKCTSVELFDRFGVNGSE
T1 sequence 2: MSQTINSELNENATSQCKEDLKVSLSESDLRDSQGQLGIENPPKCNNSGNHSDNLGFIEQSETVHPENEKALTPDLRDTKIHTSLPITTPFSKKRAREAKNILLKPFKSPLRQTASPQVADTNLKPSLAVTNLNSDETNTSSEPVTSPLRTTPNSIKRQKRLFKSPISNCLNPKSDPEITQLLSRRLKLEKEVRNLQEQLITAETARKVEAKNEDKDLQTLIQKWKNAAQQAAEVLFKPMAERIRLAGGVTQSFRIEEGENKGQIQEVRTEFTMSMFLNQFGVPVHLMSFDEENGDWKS
Nature of the data set: EMSA; 3.5 mM Mg2+; EMSA: 25 mM Hepes-KOH pH 7.5, 100 mM KCl, 3.5 mM MgCl2, 0.5 mM TCEP, 5% glycerol, 20 nM DNA, 37 C 15 min, 0.8% agarose in TAE at 4 C; pull-down: 25 mM Tris-Cl pH 7.5, 100 mM NaCl, 2 mM ATP, 5 mM MgCl2, 37 C. To be noted: protein: recombinant, tags: N-terminal His6 on Sfr1, copies: 1;1.

The target in data set [2] is T2, Swi5–Sfr1 nonphosphorylatable mutant complex (S5S1-NON) (S. pombe, UniProt Q9USV1 1-299; Q9UUB7 1-85, S24 to A | T73 to A | S109 to A | S116 to A | S165 to A).
T2 construct: Sfr1, S. pombe, five S/T phosphosites (S24, T73, S109, S116, S165) mutated to A; Swi5, S. pombe; source: E. coli BL21 DE3 (pRARE2), Sfr1 co-expressed with Swi5 from pET11b, purified (His-tag column, HiTrap Q, Superdex 200); not shown: His6, N-terminal, kept
T2 sequence (looked up) 1: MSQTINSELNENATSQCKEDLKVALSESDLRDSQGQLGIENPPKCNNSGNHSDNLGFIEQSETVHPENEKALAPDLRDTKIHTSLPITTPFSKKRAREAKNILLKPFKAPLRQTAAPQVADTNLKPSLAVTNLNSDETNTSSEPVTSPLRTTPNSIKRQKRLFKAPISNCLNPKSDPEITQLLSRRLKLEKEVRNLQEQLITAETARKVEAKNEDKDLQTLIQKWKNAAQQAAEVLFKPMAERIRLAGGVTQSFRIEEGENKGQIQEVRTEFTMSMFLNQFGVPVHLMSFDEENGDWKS
T2 sequence (looked up) 2: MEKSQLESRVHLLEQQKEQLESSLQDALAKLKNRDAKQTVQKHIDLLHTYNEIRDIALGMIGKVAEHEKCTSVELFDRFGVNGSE
The data set can be described thus: pull-down; in solution; nickel resin holds hexahistidine-tagged S5S1; 500 nM each protein; 30 mM Tris-Cl 7.5, 100 mM KCl, 5 mM MgCl2, 1 mM ATP, 0.25 mM TCEP, 5% glycerol, 0.05% Tween-20; 30 °C 15 min, then resin 1 h at 4 °C; SDS-PAGE, Coomassie. To be noted: both partners purified.

For data set [3], the target named is T3, Swi5–Sfr1 complex (wildtype, hexahistidine-tagged Sfr1) (S. pombe, UniProt Q9USV1 1-299; Q9UUB7 1-85).
T3 construct: Sfr1, S. pombe; Swi5, S. pombe; Made in E. coli, so it serves as the unphosphorylated sample; also called S5S1; wildtype S5S1; source: E. coli BL21 DE3 (pRARE2), Sfr1 co-expressed with Swi5 from pET11b, purified (His-tag column, HiTrap Q, Superdex 200); not shown: His6, N-terminal, kept
T3 sequence (looked up) 1: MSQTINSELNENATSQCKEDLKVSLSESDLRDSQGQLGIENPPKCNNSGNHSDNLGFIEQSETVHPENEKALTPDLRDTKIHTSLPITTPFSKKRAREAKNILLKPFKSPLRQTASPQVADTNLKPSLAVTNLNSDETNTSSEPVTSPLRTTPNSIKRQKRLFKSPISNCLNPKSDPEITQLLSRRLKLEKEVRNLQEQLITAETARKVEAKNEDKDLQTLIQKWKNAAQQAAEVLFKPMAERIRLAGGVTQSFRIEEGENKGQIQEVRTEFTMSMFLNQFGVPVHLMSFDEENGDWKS
T3 sequence (looked up) 2: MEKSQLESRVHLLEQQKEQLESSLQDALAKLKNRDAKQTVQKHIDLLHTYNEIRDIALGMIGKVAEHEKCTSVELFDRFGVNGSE
The description is as above. The following applies: both partners purified.

The target of data set [4] is T4, Rad51 (Schizosaccharomyces pombe, UniProt P36601 1-365).
T4 sequence: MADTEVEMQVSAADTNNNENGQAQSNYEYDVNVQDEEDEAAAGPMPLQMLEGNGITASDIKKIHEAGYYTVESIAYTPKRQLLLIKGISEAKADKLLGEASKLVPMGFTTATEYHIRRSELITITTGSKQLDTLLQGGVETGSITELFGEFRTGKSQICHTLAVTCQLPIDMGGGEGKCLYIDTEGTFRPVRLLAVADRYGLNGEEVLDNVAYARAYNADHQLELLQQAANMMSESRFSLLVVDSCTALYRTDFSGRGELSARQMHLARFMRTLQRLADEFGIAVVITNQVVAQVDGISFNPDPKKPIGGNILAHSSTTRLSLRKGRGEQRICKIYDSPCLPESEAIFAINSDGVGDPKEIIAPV
The data set can be described thus: negative-stain EM; 2 mM ATP, 5 mM Mg2+; EMSA: 25 mM Hepes-KOH pH 7.5, 100 mM KCl, 3.5 mM MgCl2, 0.5 mM TCEP, 5% glycerol, 20 nM DNA, 37 C 15 min, 0.8% agarose in TAE at 4 C; pull-down: 25 mM Tris-Cl pH 7.5, 100 mM NaCl, 2 mM ATP, 5 mM MgCl2, 37 C. The following applies: protein: recombinant.

Data set [5] deals with T5, Rad51;Swi5-Sfr1 (S5S1) wild type (Schizosaccharomyces …, UniProt P36601;Q9UUB7;Q9USV1 1-365;1-85;1-299, |).
T5 sequence 1: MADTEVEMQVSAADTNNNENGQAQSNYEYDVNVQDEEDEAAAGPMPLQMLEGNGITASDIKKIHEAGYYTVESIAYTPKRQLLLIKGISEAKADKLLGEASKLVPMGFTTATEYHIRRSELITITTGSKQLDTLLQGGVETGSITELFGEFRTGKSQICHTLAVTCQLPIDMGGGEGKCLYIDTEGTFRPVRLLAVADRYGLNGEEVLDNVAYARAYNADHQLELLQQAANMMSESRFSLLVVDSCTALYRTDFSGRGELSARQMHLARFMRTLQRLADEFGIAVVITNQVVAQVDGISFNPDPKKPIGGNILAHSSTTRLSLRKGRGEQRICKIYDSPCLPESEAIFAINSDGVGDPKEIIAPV
T5 sequence 2: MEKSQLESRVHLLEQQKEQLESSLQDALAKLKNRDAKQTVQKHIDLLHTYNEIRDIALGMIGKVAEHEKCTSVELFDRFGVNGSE
T5 sequence 3: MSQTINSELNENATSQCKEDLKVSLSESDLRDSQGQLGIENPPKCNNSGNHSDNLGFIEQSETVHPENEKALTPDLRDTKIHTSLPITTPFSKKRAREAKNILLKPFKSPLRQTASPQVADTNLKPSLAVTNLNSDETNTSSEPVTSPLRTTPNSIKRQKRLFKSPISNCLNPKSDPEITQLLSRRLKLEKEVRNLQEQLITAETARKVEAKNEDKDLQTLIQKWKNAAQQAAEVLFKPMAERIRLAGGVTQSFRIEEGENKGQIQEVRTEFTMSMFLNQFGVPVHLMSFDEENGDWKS
The data set can be described thus: negative-stain EM; 2 mM ATP, 5 mM Mg2+; longer filaments; EMSA: 25 mM Hepes-KOH pH 7.5, 100 mM KCl, 3.5 mM MgCl2, 0.5 mM TCEP, 5% glycerol, 20 nM DNA, 37 C 15 min, 0.8% agarose in TAE at 4 C; pull-down: 25 mM Tris-Cl pH 7.5, 100 mM NaCl, 2 mM ATP, 5 mM MgCl2, 37 C. To be noted: protein: recombinant;recombinant; tags: ;N-terminal His6 on Sfr1.

In data set [6] the target is B3. Nature of the data set: pull-down; filament binding assay: Rad51 (3.33 μM) filaments on circular ssDNA (10 μMnt) held on streptavidin beads through a biotinylated oligonucleotide; 3.33 μM S5S1 added, 5 min 37 °C; 25 mM Tris-Cl 7.5, 100 mM NaCl, 3.5 mM MgCl2, 2 mM ATP, 0.5 mM TCEP, 5% glycerol, 0.05% Tween-20; Sfr1 signal normalised to Rad51, relative to wildtype, n = 3. The following applies: both partners purified.

The target of data set [7] is T5, Rad51;Swi5-Sfr1 (S5S1) wild type. Nature of the data set: streptavidin pull-down; ATP, Mg2+, Fbh1-Skp1; S5S1 antagonizes disruption; EMSA: 25 mM Hepes-KOH pH 7.5, 100 mM KCl, 3.5 mM MgCl2, 0.5 mM TCEP, 5% glycerol, 20 nM DNA, 37 C 15 min, 0.8% agarose in TAE at 4 C; pull-down: 25 mM Tris-Cl pH 7.5, 100 mM NaCl, 2 mM ATP, 5 mM MgCl2, 37 C. To be noted: protein: recombinant;recombinant; tags: ;N-terminal His6 on Sfr1; label: 5' biotin.

In data set [8] the target is T4, Rad51. Nature of the data set: streptavidin pull-down; 2 mM ATP, 5 mM Mg2+; EMSA: 25 mM Hepes-KOH pH 7.5, 100 mM KCl, 3.5 mM MgCl2, 0.5 mM TCEP, 5% glycerol, 20 nM DNA, 37 C 15 min, 0.8% agarose in TAE at 4 C; pull-down: 25 mM Tris-Cl pH 7.5, 100 mM NaCl, 2 mM ATP, 5 mM MgCl2, 37 C. The following applies: protein: recombinant; label: 5' biotin.

B1: BA663 80-mer ssDNA (ssDNA)
DNA: TTGATAAGAGGTCATTTTTGCGGATGGCTTAGAGCTTAATTGCTGAATCTGGTGCTGTAGCTCAACATGTTTTAAATATG
Turning to B1, the binding result in data set [1] (label: 3' Cy5) was “binds”.

B2: BA663/BA664 80-bp dsDNA (dsDNA)
DNA 1: TTGATAAGAGGTCATTTTTGCGGATGGCTTAGAGCTTAATTGCTGAATCTGGTGCTGTAGCTCAACATGTTTTAAATATG
DNA 2: CATATTTAAAACATGTTGAGCTACAGCACCAGATTCAGCAATTAAGCTCTAAGCCATCCGCAAAAATGACCTCTTATCAA
For the molecule B2, the binding result in data set [1] (label: 3' Cy5 on BA663, blunt) is “binds”.
As for B3, the binding result in data set [2] and in data set [3] was “binds” throughout.

B4: BA494 116-mer ssDNA (ssDNA)
DNA: TTCAATATCTGGTTGAACGGCGTCGCGTCGTAACCCAGCTTGGTAAGTTGGATTAAGCACTCCGTGGACAGATTTGTCATTGTGAGCATTTTCATCCCGAAGTTGCGGCTCATTCT
Regarding B4, the binding result (with Rad51 [4]; in data set [5]) was “binds” in each case.

B5: Swi5–Sfr1 phosphomimetic mutant complex (S5S1-PM) (complex, S. pombe)
chain 1: MSQTINSELNENATSQCKEDLKVDLSESDLRDSQGQLGIENPPKCNNSGNHSDNLGFIEQSETVHPENEKALDPDLRDTKIHTSLPITTPFSKKRAREAKNILLKPFKDPLRQTADPQVADTNLKPSLAVTNLNSDETNTSSEPVTSPLRTTPNSIKRQKRLFKDPISNCLNPKSDPEITQLLSRRLKLEKEVRNLQEQLITAETARKVEAKNEDKDLQTLIQKWKNAAQQAAEVLFKPMAERIRLAGGVTQSFRIEEGENKGQIQEVRTEFTMSMFLNQFGVPVHLMSFDEENGDWKS
chain 2: MEKSQLESRVHLLEQQKEQLESSLQDALAKLKNRDAKQTVQKHIDLLHTYNEIRDIALGMIGKVAEHEKCTSVELFDRFGVNGSE
notes: Sfr1, S. pombe, five S/T phosphosites (S24, T73, S109, S116, S165) mutated to D; Swi5, S. pombe; source: E. coli BL21 DE3 (pRARE2), Sfr1 co-expressed with Swi5 from pET11b, purified (His-tag column, HiTrap Q, Superdex 200); not shown: His6, N-terminal, kept
For the molecule B5, the “fold reduction in coprecipitation with Rad51 filaments against wildtype S5S1” value in the data set with Rad51 [6] is approximately 5 fold.

B6: BA655 100-mer ssDNA (ssDNA)
DNA: ATAAGGCCACGTATTTTGCAAGCTATTTAACTGGCGGCGATTGCGTACCCGACGACCAAAATTAGGGTCAACGCTACCTGTAGGAAGTGTCCGCATAAAG
Regarding B6, the binding result (in data set [7]; with Rad51 [8]) was “binds” in each case.
